The text below walks through data of US20140322196A1.

Holding throughout (assay): cell-based or functional assay
For assay [1], the target named is Hemagglutinin (HA) of Influenza A virus A/Parma/5/06 (Wisconsin-like) H3N2 (Influenza A virus A/Parma/05/06 H3N2).
Assay [2] concerns the target Hemagglutinin (HA) of Influenza A virus A/Puerto Rico/8/34 H1N1 (PR8 virus) (Influenza A virus A/Puerto Rico/8/34 H1N1) (UniProt P03452).
Assay [3] concerns the target Hemagglutinin (HA) of Influenza A virus A/Roma-ISS/2/08 (Brisbane-like) (oseltamivir-sensitive) H1N1 (Influenza A virus A/RomaISS/2/08 H1N1).
For assay [4], the target named is Hemagglutinin (HA) of Influenza A virus A/Turkey/Italy/2676/99 H7N1 (Influenza A virus A/Turkey/Italy/2676/99 H7N1).

B1: bLf C-lobe (aa 285-689) (protein)
chain: SFQLFGSPPGQRDLLFKDSALGFLRIPSKVDSALYLGSRYLTTLKNLRETAEEVKARYTRVVWCAVGPEEQKKCQQWSQQSGQNVTCATASTTDDCIVLVLKGEADALNLDGGYIYTAGKCGLVPVLAENRKSSKHSSLDCVLRPTEGYLAVAVVKKANEGLTWNSLKDKKSCHTAVDRTAGWNIPMGLIVNQTGSCAFDEFFSQSCAPGADPKSRLCALCAGDDQGLDKCVPNSKEKYYGYTGAFRCLAEDVGDVAFVKNDTVWENTNGESTADWAKNLNREDFRLLCLDGTRKPVTEAQSCHLAVAPNHAVVSRSDRAAHVKQVLLHQQALFGKNGKNCPDKFCLFKSETKNLLFNDNTECLAKLGGRPTYEEYLGTEYVTAIANLKKCSTSPLLEACAFLTR
As for B1, the activity on viral hemagglutination (HI) amounted to 6 nM in assay [1], 24 nM in assay [2], 10 nM in assay [3] and 93.1 fM in assay [4].

B2: bLf C-lobe (aa 345-689) (protein)
chain: VVWCAVGPEEQKKCQQWSQQSGQNVTCATASTTDDCIVLVLKGEADALNLDGGYIYTAGKCGLVPVLAENRKSSKHSSLDCVLRPTEGYLAVAVVKKANEGLTWNSLKDKKSCHTAVDRTAGWNIPMGLIVNQTGSCAFDEFFSQSCAPGADPKSRLCALCAGDDQGLDKCVPNSKEKYYGYTGAFRCLAEDVGDVAFVKNDTVWENTNGESTADWAKNLNREDFRLLCLDGTRKPVTEAQSCHLAVAPNHAVVSRSDRAAHVKQVLLHQQALFGKNGKNCPDKFCLFKSETKNLLFNDNTECLAKLGGRPTYEEYLGTEYVTAIANLKKCSTSPLLEACAFLTR
For the molecule B2, the activity on viral hemagglutination (HI) was determined as 6 nM in assay [1], 12 nM in assay [2], 10 nM in assay [3] and 93.1 fM in assay [4].
